According to patent publication US20260258115A1:
Substitutions are numbered along the chain they refer to.

B1: ADI-41199 (antibody, V domains shown)
VH: QVQLVESGGGLVKPGGSLRLSCGASGFTFPDYYMSWIRQAPGKGLEWLSYISSSSSFTDYADSVKGRFTISRDNAKKSLYLQMNSLRAEDTAVYYCARVRADYVGNSRIHFDYWGQGTLVTVSS
VL: DIVMTQSPVTLSVSPGERATLSCRASQSLNGYLAWYQQKPGQAPRLLIYGASTRATEPGWDTSGRGSGTEFTLTISSLQSEDFAVYYCQQYNDWPFTFGQGTRLEIK
B2: ADI-41168 (antibody, V domains shown)
VH: EVQLVETGGGVVQPGRSLRLSCAASGFTFSSYGMHWVRQAPGKGLEWVAVISYDGSNKYYADSVKGRFTISRDNSKNTLYLQMNSLRTEDTAVYYCAKGGGYYYYYMDVWGKGTTVTVSS
VL: QPVLTQPASVSGSPGQSITISCTGTSSDVGGYNYVSWYQQHPGKAPKLMIYGVNNRPSGVSNRFSGSKSGNTASLTISGLQGEDEADYYCNSYRSGITVVFGGGTKLTVL
B3: ADI-36681 (antibody, V domains shown)
VH: EVQLVESGAEVKKPGESLKISCKASGYSFTRYWIGWVRQMPGKGLEWMGIIFPGDSDTRYCPSFEGQVTISADRSINTAYLQWSSLKASDSAMYYCVTLYTDYDYGAPDHWGQGTLVTVSS
VL: DIVLTQSPATLSVSPGERATLSCRASQSLSGDLAWYQQKPGQAPRLLIYATSTRATGIPARFSGSGSGAEFTLTISSLQSEDFAVYYCQQYYDWPLLTFGPGTKVEIK
B4: ADI-41165 (antibody, V domains shown)
VH: EVQLVETGAEVKKPGESLKISCKGSGYSFTSYWIGWVRQMPGKGLEWMGIIYPGDSDTRYSPSFQGQVTISADKSISTAYLQWSSLKASDTAMYYCARRYDYIDIWGQGTMVTVSS
VL: DIRVTQSPSSLSASVGDRVTITCQASQDISNYLNWYQQKPGKAPKLLIYDASNLETGVPSRFSGSGSGTDFTFTISSLQPEDIATYYCQQYDNLAHITFGPGTKVEIK
B5: ADI-41147 (antibody, V domains shown)
VH: EVQLVESGGGLVKPGGSLRLSCAASGFTLSGYYMSWVRQAPGKGLEWISYISGGSTYTNYADSVNGRFTISRDNAKNSLYLQMDSLRAEDTAVYYCARLEYGDYGPYYLGLWGRGTLVTVSS
VL: QSVLTQPPSVSGAPGQRVTISCTGTSSNIGAGYDVHWYQKLPGTAPKLLIYANNNRPSGVPDRFSGSKSGTSASLAITGLQAEDEADYYCQSYDTSLSAHYVFGTGTKLTVL
B6: ADI-41226 (antibody, V domains shown)
VH: EVQLVESGGGLVKPGGSLRLSCAASRFTFAGYYMSWIRQAPGKGLEWVSDISPSSTYTNYADSVKGRFTISRDNAGTSVSLQMDSLRADDTAVYYCARITPYGGSHYFDSWGQGTLVTVSS
VL: B5 VL with S2P, T25S, V35L, K40Q, A52G, N54S, T95N, A99G, H100F, L109V
B7: ADI-36671 (antibody, V domains shown)
VH: EVQLLESGGGLVKPGGSLRLSCAASGFTFSGYYMTWIRQAPEKGLEWVSYISGGSTYTNYADSVRGRFTISRDNARNSLYLQMNSLRAEDTAVYYCARDGGYGIGPLYWGQGSLVTVSS
VL: QPVLTQPPSVSGAPGQRVTISCTGSSSNIGAPFDVHWYQQLPGTAPKPLIYGNSNRPSGVPDRFSGSKSGTSASLAITGLQAEDEADYYCQSYDSSLGGYVFGTGTKLTVL
B8: ADI-41204 (antibody, V domains shown)
VH: EVQLLESGGGLVKPGGSLRLSCAASGFTFSSYSMNWVRQAPGKGLEWVSSISAGSSYIYYADSVKGRFTISRDNAKNSLYLQMNSLRAEDTAVYYCARVPSYETTPYFDYWGQGTLVTVSS
VL: B7 VL with P2S, A31S, P32G, F33Y, V35L, P48L, G52V, G98S, L108V
B9: ADI-41206 (antibody, V domains shown)
VH: EVQLLESGGGLVKPGGSLRLSCAGSGFSFSSYSMNWVRQAPEKGLEWVSSISASSSFINYADSVKGRFIISRDNAKNSLFLQMDSLRAEDTAVYYCARDGVHPGGYIFGGYIDSWGQGTLVTVSS
VL: QSVLTQPPSVSGAPGQRVTISCTGSSSNIGAGYDVHWFRQLPGTAPKLLIYGNNNRPSGVPDRFSGSKSGSSASLIITGLQAQDEATYYCQSYDSSLSGYVFGTGTKLTVL
B10: ADI-36680 (antibody, V domains shown)
VH: QVTLKESGAELRKPGESLKISCKASGYRFTNYWIGWVRQMPGKGLEWMGVIYPGDSDTKYSPSFQGQVTMSADKSINTAYLQWSSLKASDTAIYYCVSLFGDYDYGALDYWGQGTLVTVSS
VL: ETTLTQSPATLSMSPGERATLSCRASQSVGRNLAWYQQKPGQAPRLLIYGASIRATGILARFSGSGSGTEYTLTISSLQPEDFAVYYCQQYHDWPSFTFGPGTKVDIK
B11: ADI-41227 (antibody, V domains shown)
VH: RSSWCSVGAEVKKRGSSVKVSCKASGGTFGGYAVSWVRQAPGQGLEWMGGIIPMFYTTKYAQKLQGRVTITADESTNTAYMDLSSLTSDDTAIYFCAREWHLGRTAVTGTGAFLDAFDIWGQGTMVTVSS
VL: SYELTQPPSVSEAPRQRVTISCSGSSSNIGNNAVNWYQQLPGKAPKLLIYYDDLLPSGVSDRFSGSKSGTSASLAISGLQSEDEADYYCSAWDDSLNGWVFGGGTKLTVL
B12: ADI-41180 (antibody, V domains shown)
VH: EVQLVQSGGGLVKPGGSLRLSCAASGFTFIDYYMSWIRQAPGKGLEWVSSISGGSTYTTYADSVKGRFTISRDNGKNSLYLQMDSLRAEDTAVYYCARLGGYSYYMDVWGKGTTVTVSS
VL: QPVLTQPPSVSGAPGQRVTISCTGSSSNIGAGYDVHWYQHLPGAAPKLLIYDNTNRPSGIPDRFSGSKSGTSASLAITGLQAEDEADYYCQSYDSSLDWVFGGGTKVTVL
B13: ADI-41217 (antibody, V domains shown)
VH: EVQLVQSGGGLVKPGGSLRLSCVASGFTFSSYSMNWVRQAPGKGLEWVSSISASSSYIDYADSVKGRFTISRDNDKKSLYLQMSSLRAEDTAVYYCAREDYDSLTGYYSPKRFDPWGQGTLVTVSS
VL: B12 VL with P2S, V10L, H40Q, A44T, D52G, T54N, I60V, S95R, D98S, W99V
B14: ADI-41216 (antibody, V domains shown)
VH: EVQLVESGGGLVKPGESLRLSCAASGFRFSDHYMSWIRQAPGKGLEWISYISSSSSYIHYADSVTGRFTISRDNAKNSMYLQMNSLRAEDTAVYYCAREIGRSYYMDVWGKGTTVTVSS
VL: QSALIQPPSVSGAPGQRVTISCTGSSSNIGAGYDVHWYQQLPGTAPKLLIYGNNNRPSGVPDRFSASKSGISASLAITGVQTEDEADYYCQSYDRSLSEFYVFGSGTKVTVL
B15: ADI-41210 (antibody, V domains shown)
VH: QVQLVQSGAEVKKPGASVKVSCKASGYTFNNYGISWVRQAPGQGLEWMGWISAYNGDIKYAQKFQGRVTVTTDTSTSTAYMELRSLRSDDTAVYYCARDTPVGGGTQTFDYWGQGTLVTVSS
VL: ETTLTQSPLSLPVTLGQPASISCRSSQSLVHSNGNTYLNWFQQRPGQSPRRLIYTVSNRDSGVPDRFSGSGSGTDFTLKISRVEAEDVGVYYCMQATHRPGTFGQGTKVEIK
B16: ADI-41198 (antibody, V domains shown)
VH: EVQLVQSGGVVIQPGGSLRLSCAASGFSFDEYLMHWVRQLPGKGLEWVALISWHGDITYYADSVKGRFTISRDNSRYSLYLQMNSLRSDDTALYYCVKDGWIEGAFNHTFGIGYYFENWGQGTLVTVSS
VL: DIVLTQTPSSLSASVGDRVTITCQASQDINNCLNWYQQKPGKAPEVLIFDASNLETGVPLRFSGSGSGTHFTLTISSLQPEDIATYYCQQHENVPLTFGGGTKVEIK
B17: ADI-41193 (antibody, V domains shown)
VH: EVQLVESGGGLVKPGMSLRLSCAASGFRFSDHYMNWIRQAPGKGLEWVSYISSSSTYTDYTDSVKGRFTISRDNSKNSVYLQMNSLRAEDTAIYYCARVAPIRHNGDYIDYWGQGTTVTVSS
VL: NFMLTQPPSASGTPGQRVTISCTGSSSNIGAGYDVHZYQQIPGTAPKLLIYGNNNRPSGVPDRFSGSKSGTSASLAITGLQTEDEADYYCQSYDRGLSGRVFGTGTKVTVL
B18: ADI-41188 (antibody, V domains shown)
VH: QVQLQQWGAGLLKSSETLSLTCAVYGGSFSGYYWSWIRQSPGKGLEWIGEINHSGSANYNPSLKNRVTISRDTSKNQFSLWLSSVTAADTAVYYCARTSRSPEPDNYYYYMDVWGRGTTVTVSS
VL: QSVLTQPPSVSGAPGQRVSISCTGSSSDIGAGYDVHWYQQFPGTAPKLLMYANNNRPSGVPDRFSGSRSGTSASLAITGLQAEDEADYYCQSYDSNLDVVVFGGGTKLTVL
B19: ADI-36679 (antibody, V domains shown)
VH: QVQLVQSGAEVKKPGESLKISCKGSGYSFRSYWIAWVRQMPGKGLEWMGTIFPGDSDVTYSPSFQGQVTISVDKSTSTAYLQWGSLKASDTAIYYCARRYDYIDFWGQGTLVTVSS
VL: DIQMTQSPSSLSASVGDRVTITCQASQDIINHLNWYQQKPGKAPKLLIYDASNLHPGVPSRFSGSGSGTYFTFTISSLQPDDFATYYCQQYDFLAHITFGPGTKVDIK
B20: ADI-41157 (antibody, V domains shown)
VH: EVQLVESGPGLVKPSETLSLTCTVSGGSISTYYWSWIRQPPGKGLEWIGYIYYTGSTNYNPSLKSRVTISLDTSKNQFSLKLSSVSAADTAFYYCARSPPVPGTRSWFDPWGQGTLVTVSS
VL: SPGLTQPQSAFGTPGQRVTISCFGSSSNIGRNHIYWYQQVPGTAPKLLIYRNNQRPSGVPDRFFGSKFGTSASLAISGVRSEDEADYFCAAWDDSLSGPVFGGGTKLTVL

biological target: Respiratory Syncytial Virus fusion glycoprotein (RSV F) on RSV-A2 virus (Respiratory Syncytial Virus subtype A (RSV-A2)); experiment: cell-based or functional assay

Binder	Neutralization IC50 (RSV subtype A)
B1	0.23 µg/mL
B2	> 25 µg/mL
B3	0.01 µg/mL
B4	> 25 µg/mL
B5	0.06 µg/mL
B6	0.15 µg/mL
B7	0.01 µg/mL
B8	0.06 µg/mL
B9	0.07 µg/mL
B10	0.01 µg/mL
B11	> 25 µg/mL
B12	0.07 µg/mL
B13	0.04 µg/mL
B14	0.19 µg/mL
B15	0.1 µg/mL
B16	0.32 µg/mL
B17	0.07 µg/mL
B18	0.15 µg/mL
B19	0.01 µg/mL
B20	0.22 µg/mL

biological target: RSV prefusion F (preF), DS-Cav1 (Respiratory Syncytial Virus); experiment: BLI, IgG on anti-human IgG sensor, 100 nM antigen

Binder	Kd
B1	1.73 nM
B2	133 nM
B3	1.2 nM
B4	2.4 nM
B5	0.467 nM
B6	0.82 nM
B7	0.728 nM
B8	0.545 nM
B9	0.409 nM
B10	0.719 nM
B11	4.62 nM
B12	0.47 nM
B13	0.489 nM
B14	0.903 nM
B15	0.47 nM
B16	0.756 nM
B17	0.74 nM
B18	0.224 nM
B19	0.878 nM
B20	0.507 nM
